Data on 33 sequences can be found in the supplement of paper PMC9170038.

The data set has as its system MS2 coat protein. Put plainly: apparent KD of MS2 coat protein; designed switch direction (-1 OFF switch, 1 ON switch): -1; higher = weaker reporter binding. The method, boiled down:
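The apparent KD reported per design is the median over clusters of curve fits to normalised cluster fluorescence. The RNA switches were transcribed on Illumina chips by stalled E. coli RNA polymerase. SNAP-549-labelled MS2 coat protein was titrated from 0.7 or 1.5 nM, doubling up to 3 µM, in Tris-HCl pH 7.5 buffer containing KCl, MgCl2, BSA, DTT, tRNA and Tween-20, with no input, 200 uM small-molecule ligand, or an oligonucleotide input.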

Setting [1] is: input ligand: microRNA oligo, concentration not stated.
[2] abbreviates: Eterna round: R95, input ligand: microRNA oligo, concentration not stated.
Where [3] appears, read: Eterna round: R95, input ligand: FMN 200 uM.
The mark [4] stands for this setting: Eterna round: R95, input ligand: none.

With “CCGCUCCGUGUAGGAUAUUGGCCUGCUCUGGGUCGAGAAGGACAUGAGGAUCACCCAUGUAUGUUAUUAUCACGCGUGGCGCAU [Design 80] (Eterna round: R96, puzzle: Exclusion NG 1)”, the “apparent KD of MS2 coat protein” value was determined as 41.8 nM (input ligand: FMN 200 uM), 18.9 nM under setting [1] and 29.3 nM (input ligand: none).
As for “CCGCUGUGAGGAUAUUAGUAGUAGUCAGAAAAGACUAUUACUGAGAAGGCACAUGAGGAUCACCCAUGUCGCGG [Mat - Exclusion 4 - Eli Mod - D49] (Eterna round: R97, puzzle: Exclusion 4)”, the “apparent KD of MS2 coat protein” value stood at 39.7 nM (input ligand: FMN 200 uM) and 28.8 nM (input ligand: none).
The corresponding values for “CCGGAAAGGAAGGAUAUGCUAGACGAAAGUCUAGCAGAAGGUCCUACAUGAGGAUCACCCAUGUGUCCUCCCGG [Eli x6 4.08] (Eterna round: R97, puzzle: Exclusion 6)” are 2270 nM and 270 nM.
“CCGGAAAGGAAGGAUAUGCUAGACGAUAGUCUAGCAGAAGGUCCUACAUGAGGAUCACCCAUGUGUCCUCCCGG [Mat - Exclusion 6 - Eli Mod - D43] (Eterna round: R97, puzzle: Exclusion 6)”: the “apparent KD of MS2 coat protein” value was 1260 nM (input ligand: FMN 200 uM) and 182 nM (input ligand: none).
Consider “CCGGAAGUAGAGGAUAUCGUAUCGGAUACGAUACGAGAAGGCUAUACAUGAGGAUCACCCAUGUGUCCUACCGG [Fiskers Ex 6 - 5] (puzzle: Exclusion 6)”, for which the “apparent KD of MS2 coat protein” value under setting [2] was determined as 21.4 nM.
In the case of “CCGGCCGCCGUGAGGAUAUGCCCGCGCGCCCGCGGGCAGAAGGCACAUGAGGAUCACCCAUGUCCCGCGGUCCC [salish99_bmx4_r4_123] (Eterna round: R97, puzzle: Brourd's mod of Exclusion 4)”, the “apparent KD of MS2 coat protein” value (input ligand: FMN 200 uM) was found to be 35.8 nM and the “apparent KD of MS2 coat protein” value (input ligand: none) worked out at 15.6 nM.
The corresponding values for “CCGGCUGCUGUGAGGAUAUGCCCGCGCGCCCGCGGGCAGAAGGCACAUGAGGAUCACCCAUGUCCUGCGGUCCC [salish99_bmx4_r4_120] (Eterna round: R97, puzzle: Brourd's mod of Exclusion 4)” are 122 nM and 24.1 nM.
Turning to “CCGGUAAAGGAGGAUAUAGGAGUCGAUAGACACCUAGAAGGCCUGACAUGAGGAUCACCCAUGUGUCCUACCGG [Fiskers Ex 6 - 93] (puzzle: Exclusion 6)”, the “apparent KD of MS2 coat protein” value amounted to 23.7 nM under setting [3], 14.1 nM under setting [2] and 13.5 nM under setting [4].
For “CCGGUUGGCGCAGGAUAUACAUGAGGAUCACCCAUGUUCAUGAGGAUCACUCAUGAGUUUUUGUUGUAGAAGGGUGGCCCGGCC (Eterna round: R96, puzzle: Exclusion NG 2)”, the “apparent KD of MS2 coat protein” value reads like this: (input ligand: FMN 200 uM) 1170 nM; under setting [1], 605 nM; (input ligand: none) 933 nM.
For “CCGUGAGGUAAUAAUCAGUACAUGAGGAUCACCCAUGUCAAGAAGUUGCUCGUCGGUCGGAAAUACGGACGACCCAU [Eternabot (Original) Solution 50] (Eterna round: R97, puzzle: Sensor, turn-off variant 1)”, the “apparent KD of MS2 coat protein” value is 19.1 nM (input ligand: FMN 200 uM) and 17.9 nM (input ligand: none).
As to “CCGUGGCAAGGAUAUACAGAGGAGAGGAAGGCAAGAGGUGGACAUGAGGAUCACCCAUGUAGAAGGUGCAGAGC [JR_Exclu2_Sub026] (puzzle: Exclusion 2)”, the “apparent KD of MS2 coat protein” value runs as follows: under setting [3], 130 nM; under setting [2], 124 nM; under setting [4], 160 nM.
“CCUAAACAUGAGGAUCACCCAUGUGAGGAUAUGAUGCAGCAGUGGUCUACGCUGUGCAUCAGAAGGUACAUGGU (puzzle: Exclusion 1)”: under setting [2], the “apparent KD of MS2 coat protein” value was 73.4 nM.
In the case of “CCUAGUUGGUAAGGAUAUCCUACACUAUUCUGACCCGUGCAAGCUACAUGAGGAUCACCCAUGUGGGAGAAGGUGCGUCAACGC [Design 11] (Eterna round: R96, puzzle: Exclusion NG 2)”, the “apparent KD of MS2 coat protein” value turned out to be 29.1 nM (input ligand: FMN 200 uM), 19.7 nM under setting [1] and 32.9 nM (input ligand: none).
For “CCUAGUUGGUAAGGAUAUCCUACACUGUUCUGACCCGGGCAUGCUACAUGAGGAUCACCCAUGUGGGAGAAGGUGCGUCAACGC [Design 14] (Eterna round: R96, puzzle: Exclusion NG 2)” the same measures were 36.8 nM, 19.3 nM and 30.6 nM.
The corresponding values for “CCUAGUUGGUAAGGAUAUCCUACAUUGUUCUGACCCGGGCAUGCUACAUGAGGAUCACCCAUGUGGGAGAAGGUGCGUCAUCGC [Design 16] (Eterna round: R96, puzzle: Exclusion NG 2)” are 80.4 nM, 55.9 nM and 83.4 nM.
As for “CCUCAGUGAGGAUAUCAGUAAUGUAAGACGUACAGUCGCACUGAGAAGGUACAUGAGGAUCACCCAUGUUAGUU [Eternabot (L1) Solution 50] (Eterna round: R97, puzzle: Exclusion 4)”, the “apparent KD of MS2 coat protein” value stood at 31.3 nM (input ligand: FMN 200 uM) and 23 nM (input ligand: none).
In the case of “CCUCCACAUGAGGAUCACCCAUGUCAGGAUAUCGUGUGUGUUUUUUCGGUCUUUCGUGCGAGAAGGGACGUCUG (puzzle: Exclusion 1)”, under setting [2], the “apparent KD of MS2 coat protein” value came to 45.6 nM.
In the case of “CCUCCACAUGAGGAUCACCCAUGUCAGGAUAUCGUGUGUUUUUUUUCGGUCUUUCGUGCGAGAAGGGACGUCUU (puzzle: Exclusion 1)”, the “apparent KD of MS2 coat protein” value under setting [2] worked out at 30.8 nM.
As to “CCUCCGGUACGAGGAUAUCUGACGGCCGCCGGAGGAGAAGGCGUACAUGAGGAUCACCCAUGUCCAGCGUGCACCACGCUGGUU [Usbius] (Eterna round: R96, puzzle: Exclusion NG 1)”, the “apparent KD of MS2 coat protein” value was determined as 119 nM (input ligand: FMN 200 uM), 38.1 nM under setting [1] and 44.9 nM (input ligand: none).
As to “CCUCUACAUGAGGAUCACCCAUGUCAGGAUAUGCGAAUUUCAUCAAAAGAUGAAAUUUGCAGAAGGGACUAAGC [Omei Ex1 A34] (Eterna round: R97, puzzle: Exclusion 1)”, the “apparent KD of MS2 coat protein” value (input ligand: FMN 200 uM) was 282 nM and the “apparent KD of MS2 coat protein” value (input ligand: none) is 246 nM.
The corresponding values for “CCUCUACAUGAGGAUCACCCAUGUGAGGAUAUCAAAGUCAGGGCGGCGCCCUGACUCAUGAGAAGGUGCAUGAA [EX1 A.16] (Eterna round: R97, puzzle: Exclusion 1)” are 31.8 nM and 22.4 nM.
“CCUCUACAUGAGGAUCACCCAUGUGAGGAUAUCUCGGAAAAGCCACUUAAGGUACUCCAGAGAAGGCACGUGUA [Rileed] (puzzle: Exclusion 1)”: the “apparent KD of MS2 coat protein” value under setting [2] was 15.2 nM.
Same read-out and setting: the result for “CCUCUACAUGAGGAUCACCCAUGUGAGGAUAUCUCGGAGCAGCCAAUUAAAGCGCUCCAGAGAAGGCACGUGUA [Inesraar] (puzzle: Exclusion 1)” reads 19.4 nM.
On the same count and under the same terms, the result for “CCUCUACAUGAGGAUCACCCAUGUGAGGAUAUCUCGGAGCAGCCACUUAAGGCGCUCCAGAGAAGGCACGUGUA [Resogeorza] (puzzle: Exclusion 1)” reads 17.6 nM.
Still for that read-out and setting: the value for “CCUCUGUAAGGAUAUACGGAGACGGCUGGAAUCAGUGGAAAGUAGAAGGUACAUGAGGAUCACCCAUGUGAGAC [Anceleso] (puzzle: Exclusion 4)” was 20.2 nM.
For the sequence “CCUGAUCCACAGGAUAUGCUCAUCUAAUGAUGAGCAGAAGGGUGGACAUGAGGAUCACCCAUGUUUAUCAAUGG [Omei Ex6 D4] (Eterna round: R97, puzzle: Exclusion 6)”, the “apparent KD of MS2 coat protein” value was 804 nM (input ligand: FMN 200 uM) and 125 nM (input ligand: none).
The corresponding values for “CCUUAGUCACAGGAUAUGCUCAUCUAAUGAUGAGCAGAAGGGUGGACAUGAGGAUCACCCAUGUUUAUCAAGGG [Omei Ex6 E2] (Eterna round: R97, puzzle: Exclusion 6)” are 249 nM and 348 nM.
Consider “CCUUAGUUAGGAUAUAUUAAGGCCUCUGUGAGCGCAGGGCAAUAGAAGGAACAUGAGGAUCACCCAUGUAUGGA [Eternabot (L2) Solution 98] (Eterna round: R97, puzzle: Exclusion 4)”, for which the “apparent KD of MS2 coat protein” value reads like this: (input ligand: FMN 200 uM) 38.6 nM; (input ligand: none) 29.7 nM.
For “CGAGCCUAUGUAAGGAUAUCACAAUAAAACCAGUGUGAGAAGGUACAUGAGGAUCACCCAUGUUCACGACUGGC [BmEX4 A.26] (Eterna round: R97, puzzle: Brourd's mod of Exclusion 4)” the same measures were 16.9 nM and 16.8 nM.
For “CGAGCUAGUGUGAGGAUAUACCUAUGGAUACAUAGGUAGAAGGCACAUGAGGAUCACCCAUGUCCUAUAGCUCG [jl-bmx4-4.56] (Eterna round: R97, puzzle: Brourd's mod of Exclusion 4)” the same measures were 499 nM and 177 nM.
On to “CGAUAAAGGUGAGGAUAUGAGAAUAGAAAGAAAUCAGAAGGCACACAUGAGGAUCACCCAUGUGAGUUCUUGAGAUUACAUGGU [Prohibition 44 - Jieux - Exclusion NG 1] (Eterna round: R96, puzzle: Exclusion NG 1)”, for which, under setting [1], the “apparent KD of MS2 coat protein” value came out at 11 nM.
Regarding “CGAUGAGCGGUGAGGAUAUCGUGUUCGAAAGAACGUGAGAAGGCACAUGAGGAUCACCCAUGUGAUCCUCAUCG [Omei Ex4B A34] (Eterna round: R97, puzzle: Brourd's mod of Exclusion 4)”, the “apparent KD of MS2 coat protein” value reads like this: (input ligand: FMN 200 uM) 21.4 nM; (input ligand: none) 15.2 nM.
Turning to “CGAUGCUCGUGUCCACAUGAGGAUCACCCAUGUCGAGUUAGCGAGGAUAUCGGUGACACAUAGUACGAGAAGGCGCGAACCUGA [Ex NG3 #26] (Eterna round: R96, puzzle: Exclusion NG 3)”, the “apparent KD of MS2 coat protein” value is, setting by setting: (input ligand: FMN 200 uM) 54.3 nM; under setting [1], 21 nM; (input ligand: none) 32.2 nM.
